# Patent US20240270846A1 (published 2024)
# Numbering of substitutions follows the chain as printed. Names and notes keep the numbering of the source.
# B1: GLS3000 R29L (Kabat) L chain altered form, one-arm antibody with CE115HA000 (antibody, human IgG1, kappa, L234A L235A, N297A, name in Kabat numbering)
# heavy: QVQLVESGGGVVQPGRSLRLSCAASGFTFSNAWMHWVRQAPGKGLEWVAQIKAKSNNYATYYAESVKGRFTISRDDSKNSLYLQMNSLKTEDTAVYYCRYVHYGAYYGVDAWGQGTTVTVSSASTKGPSVFPLAPSSKSTSGGTAALGCLVKDYFPEPVTVSWNSGALTSGVHTFPAVLQSSGLYSLSSVVTVPSSSLGTQTYICNVNHKPSNTKVDKKVEPKSCDKTHTCPPCPAPEAAGGPSVFLFPPKPKDTLMISRTPEVTCVVVDVSHEDPEVKFNWYVDGVEVHNAKTKPREEQYASTYRVVSVLTVLHQDWLNGKEYKCKVSNKALPAPIEKTISKAKGQPREPQVYTLPPSRCELTKNQVSLSCAVKGFYPSDIAVEWESNGQPENNYKTTPPVLDSDGSFFLVSKLTVDKSRWQQGNVFSCSVMHEALHNHYTQKSLSLSPDYKDDDDK
# chain: EPKSSDKTHTCPPCPAPELLGGPSVFLFPPKPKDTLMISRTPEVTCVVVDVSHEDPEVKFNWYVDGVEVHNAKTKPREEQYNSTYRVVSVLTVLHQDWLNGKEYKCKVSNKALPAPIEKTISKAKGQPREPQVCTLPPSRDELTKNQVSLWCLVKGFYPSDIAVEWESNGQPENNYKTTPPVLDSDGSFFLYSKLTVDKSRWQQGNVFSCSVMHEALHNRYTQKSLSLSP
# light: DIVMTQSPLSLPVTPGEPASISCRSSQSLVHSNLNTYLHWYQQKPGQAPRLLIYKVSNRFSGVPDRFSGSGSGTDFTLKISRVEAEDVGVYYCGQGTQVPYTFGQGTKLEIKRTVAAPSVFIFPPSDEQLKSGTASVVCLLNNFYPREAKVQWKVDNALQSGNSQESVTEQDSKDSTYSLSSTLTLSKADYEKHKVYACEVTHQGLSSPVTKSFNRGEC
# notes: one-arm antibody
# B2: GLS3000 S25A (Kabat) L chain altered form, one-arm antibody with CE115HA000 (antibody, human IgG1, kappa, L234A L235A, N297A, name in Kabat numbering)
# heavy: B1 heavy
# chain: B1 chain
# light: B1 light with S25A, L34R
# notes: one-arm antibody
# B3: GLS3000 R29P (Kabat) L chain altered form, one-arm antibody with CE115HA000 (antibody, human IgG1, kappa, L234A L235A, N297A, name in Kabat numbering)
# heavy: B1 heavy
# chain: B1 chain
# light: B1 light with L34P
# notes: one-arm antibody
# B4: GLS3000 R29V (Kabat) L chain altered form, one-arm antibody with CE115HA000 (antibody, human IgG1, kappa, L234A L235A, N297A, name in Kabat numbering)
# heavy: B1 heavy
# chain: B1 chain
# light: B1 light with L34V
# notes: one-arm antibody
# B5: GLS3000 R29Y (Kabat) L chain altered form, one-arm antibody with CE115HA000 (antibody, human IgG1, kappa, L234A L235A, N297A, name in Kabat numbering)
# heavy: B1 heavy
# chain: B1 chain
# light: B1 light with L34Y
# notes: one-arm antibody
# B6: GLS3000 R29S (Kabat) L chain altered form, one-arm antibody with CE115HA000 (antibody, human IgG1, kappa, L234A L235A, N297A, name in Kabat numbering)
# heavy: B1 heavy
# chain: B1 chain
# light: B1 light with L34S
# notes: one-arm antibody
# B7: GLS3000 R54A (Kabat) L chain altered form, one-arm antibody with CE115HA000 (antibody, human IgG1, kappa, L234A L235A, N297A, name in Kabat numbering)
# heavy: B1 heavy
# chain: B1 chain
# light: B1 light with L34R, R59A
# notes: one-arm antibody
# B8: GLS3000 S25D (Kabat) L chain altered form, one-arm antibody with CE115HA000 (antibody, human IgG1, kappa, L234A L235A, N297A, name in Kabat numbering)
# heavy: B1 heavy
# chain: B1 chain
# light: B1 light with S25D, L34R
# notes: one-arm antibody
# B9: GLS3000 S25E (Kabat) L chain altered form, one-arm antibody with CE115HA000 (antibody, human IgG1, kappa, L234A L235A, N297A, name in Kabat numbering)
# heavy: B1 heavy
# chain: B1 chain
# light: B1 light with S25E, L34R
# notes: one-arm antibody
# B10: GLS3000 S25I (Kabat) L chain altered form, one-arm antibody with CE115HA000 (antibody, human IgG1, kappa, L234A L235A, N297A, name in Kabat numbering)
# heavy: B1 heavy
# chain: B1 chain
# light: B1 light with S25I, L34R
# notes: one-arm antibody
# B11: GLS3000 R29T (Kabat) L chain altered form, one-arm antibody with CE115HA000 (antibody, human IgG1, kappa, L234A L235A, N297A, name in Kabat numbering)
# heavy: B1 heavy
# chain: B1 chain
# light: B1 light with L34T
# notes: one-arm antibody
# Molecular target: T1, CD3 epsilon homodimer protein (UniProt P07766 23-126)
# T1 construct: construct not described; homodimer as printed; also called CD3 (CD3 epsilon)
# Experiment: SPR Biacore T200, CD3 epsilon homodimer immobilized; vs unaltered GLS3000;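 also: antibody variants flowed as analyte over CD3 epsilon homodimer amine-coupled to a CM4 chip, at 25 °C in HBS-EP+ running buffer, fitted with Biacore T200 Evaluation Software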
# T1 sequence (P07766 23-126): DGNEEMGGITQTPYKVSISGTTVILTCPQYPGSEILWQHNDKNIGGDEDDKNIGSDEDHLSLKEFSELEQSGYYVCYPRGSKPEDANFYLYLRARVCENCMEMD
row,Binder,KD ratio to GLS3000 (Affinity up)
1,B1,0.9
2,B2,0.73
3,B3,14
4,B4,2.25
5,B5,1.08
6,B6,1.05
7,B7,0.85
8,B8,8.86
9,B9,6.54
10,B10,0.67
11,B11,1.02
